The values that follow come from publication PMC4528139.

The target of test [1] is 40007 (clade CRF01 A-E) gp140 trimer, Strep-tag approach (HIV-1 strain 40007). The test is described as follows: not stated; trimers purified by the Strep-tag approach; manuscript in preparation.
The target in test [2] is JRFL foldon-gp140 (uncleaved foldon trimer) (HIV-1 strain JRFL | bacteriophage T4). Kind of test: SEC + native gel or EMSA. On the technique in general: A gel shift assay detects complexes by their altered migration in electrophoresis.
In test [3] the target is SF162 (clade B) gp140 trimer, Strep-tag approach (HIV-1 strain SF162). Kind of test: not stated; trimers purified by the Strep-tag approach; manuscript in preparation.
Test [4] has as its target Strep-tagged BG505 CR gp140 (uncleaved) (HIV-1 strain BG505). Kind of test: native gel or EMSA.
Test [5] concerns the target Strep-tagged JRFL CP664-gp140 (cleaved trimer) (HIV-1 strain JRFL). Kind of test: SEC + native gel or EMSA; Strep-Tactin-purified gp140 on Superdex 200 in 25 mM Tris-HCl pH 8, 150 mM NaCl; fractions on blue native PAGE; 293F- or GnTI−-produced.
Test [6] has the same target. The test is described as follows: negative stain EM.
For test [7] the target is unchanged. Kind of test: native gel or EMSA.
Test [8] addresses Strep-tagged JRFL CR664-gp140 (uncleaved) (HIV-1 strain JRFL). The test is described as follows: SEC + native gel or EMSA; Strep-Tactin-purified gp140 on Superdex 200 in 25 mM Tris-HCl pH 8, 150 mM NaCl; fractions on blue native PAGE; 293F- or GnTI−-produced.
For test [9] the target is unchanged. The test is described as follows: negative stain EM.
Test [10] has the same target. The test is described as follows: native gel or EMSA.

“And” between values parts separate entries of the source, which are not always exact repeats. Identical values can stand only once.

The term stoichiometry N denotes the number of molecules, sites or subunits per partner or assembly. “40007 (clade CRF01 A-E) gp140 trimer, Strep-tag approach (natural protein)”: in test [1], the stoichiometry N was found to be 3.

As for “JRFL foldon-gp140 (uncleaved foldon trimer)”, the stoichiometry N in [2] is 3.

In test [3], “SF162 (clade B) gp140 trimer, Strep-tag approach (natural protein)” came in with a stoichiometry N of 3.

“Strep-tagged BG505 CR gp140 (uncleaved) (natural protein)”: in [4], the stoichiometry N is 3.

With “Strep-tagged JRFL CP664-gp140 (cleaved trimer) (complex)”, the fold, fraction of gp140 recovered as trimers against uncleaved gp140 in [5] is 3 fold and 5 fold. For the same substance, the stoichiometry N in test [5], in [6] and in [7] was 3 throughout.

“Strep-tagged JRFL CR664-gp140 (uncleaved) (natural protein)”: the stoichiometry N was 3 in test [8]; 3 in test [9]; 2 and 3 in test [10].
